Laboratory results: patent US7763426B2, “Probes and methods for detection of Escheridia coli and antibiotic resistance” (priority 2004, dated 2010)
Positions count from the first letter of the chain named. Entries after “also recorded” stand apart in the source; their conditions may differ. {Fluorescein} = fluorescein label (binding site for anti-fluorescein Fab-HRP); {Biotin} = biotin (capture probe anchor)

B1: KE: Klebsiella & Enterobacter spp. probe pair: capture SEQ ID NO: 5, detector SEQ ID NO: 6 (nucleic acid, listed as Enterobacter sp.)
DNA 1: GTCAATCGMCRAGGTTATTAACCTYAHCGCCTTCC
DNA 2: CTGAAAGTGCTTTACAACCCGAAGGCCTTCTTCAT
modifications: DNA 1: DNA, 5' {Biotin}, backbone, methylation of C and the base at N not given here; DNA 2: DNA, 5' {Fluorescein}, backbone and methylation of C not given here; Capture probe contains degenerate positions (M, R, Y, H)
B2: EC: Escherichia coli probe pair: capture 449 (35 mer) SEQ ID NO: 1, detector 408 (35 mer) SEQ ID NO: 2 (nucleic acid, listed as Escherichia coli)
DNA 1: GTCAATGAGCAAAGGTATTAACTTTACTCCCTTCC
DNA 2: B1 DNA 2 with G9A
modifications: DNA 1: 5' {Biotin}, sugars by position and backbone not given here; DNA 2: 5' {Fluorescein}, sugars by position and backbone not given here
B3: PA: Pseudomonas aeruginosa probe pair: capture SEQ ID NO: 7, detector SEQ ID NO: 8 (nucleic acid, listed as Pseudomonas aeruginosa)
DNA 1: CCCACTTTCTCCCTCAGGACGTATGCGGTATTAGC
DNA 2: TTCCGGACGTTATCCCCCACTACCAGGCAGATTCC
modifications: DNA 1: DNA, 5' {Biotin}, backbone and methylation of C not given here; DNA 2: DNA, 5' {Fluorescein}, backbone and methylation of C not given here
B4: PM: Proteus mirabilis probe pair: capture 202 (35 mer) SEQ ID NO: 3, detector 162 (35 mer) SEQ ID NO: 4 (nucleic acid, listed as Proteus mirabilis)
DNA 1: GGGTTCATCCGATAGTGCAAGGTCCGAAGAGCCCC
DNA 2: GGTCCGTAGACATTATGCGGTATTAGCCACCGTTT
modifications: DNA 1: 5' {Biotin}, sugars by position and backbone not given here; DNA 2: 5' {Fluorescein}, sugars by position and backbone not given here
B5: EF: Enterococcus spp probe pair: capture SEQ ID NO: 9, detector SEQ ID NO: 10 (nucleic acid, listed as Enterococcus sp.)
DNA 1: TTGGTGAGCCGTTACCTCACCAACTAGCTAATGCA
DNA 2: GTCCATCCATCAGCGACACCCGAAAGCGCCTTTCA
modifications: DNA 1: 5' {Biotin}, sugars by position and backbone not given here; DNA 2: 5' {Fluorescein}, sugars by position and backbone not given here
B6: EB: Enterobacteriaceae probe pair: capture SEQ ID NO: 11, detector SEQ ID NO: 12 (nucleic acid, listed as Enterobacter sp.)
DNA 1: CGGACTACGACATACTTTATGAGGTCCGCTTGCTC
DNA 2: GAGGTCGCTTCTCTTTGTATATGCCATTGTAGCAC
modifications: DNA 1: DNA, 5' {Biotin}, backbone and methylation of C not given here; DNA 2: DNA, 5' {Fluorescein}, backbone and methylation of C not given here

Key:
[1] = tested on: 16S rRNA in lysates of uropathogens; assay: Species specificity of uropathogen probe pairs with the electrochemical sensor array (Example 1); format: binding; conditions: probe pairs of Table 1
[2] = tested on: bacterial 16S rRNA; assay: Clinical validity study: UTI Chip on blinded clinical urine specimens; format: binding
Description: Amperometric detection of bacterial 16S rRNA. An overview of the electrochemical sensor detection strategy is presented in panel C of FIG. 1. One ml of bacteria in Luria broth, inoculated clean urine, or clinical urine samples was centrifuged at 10,000×g for 5 min. The supernatant was discarded and the bacteria were lysed by resuspension of the pellet in 10 μl of 1 M NaOH and incubation at room temperature for 5 min. In some experiments, addition of 1M NaOH was preceded by resuspension of the bacterial pellet in 10 μl of 0.1% Triton X-100, 2 mM EDTA, and 1 mg/ml lysozyme (Sigma) in 20 mM Tris-HCl, pH 8.0, and incubation at room temperature for 5 min. 50 μl of the detector probe (0.25 μM) in 2.5% bovine serum albumin (Sigma, St. Louis, Mo.) 1 M phosphate buffer, pH 7.4, were added to the bacterial lysate and incubated for 10 min at 65° C. to allow target-probe hybridization. 4 μl of the bacterial lysate/detector probe mixture was deposited on each of the working electrodes in the sensor array and incubated for 15 min at 65° C. in a humidified chamber. After washing and drying, 4 μl of 0.5 U/ml anti-fluorescein horseradish peroxidase (HRP) Fab fragments (Roche, diluted in 0.5% casein in 10 mM phosphate buffered saline, pH 7.4) were deposited on each of the working electrodes for 15 min. After washing and drying, a prefabricated plastic well manifold (GeneFluidics, Monterey Park, Calif.) was bonded to the sensor array. The sensor array was put into the chip reader (FIG. 18) and 50 μl of 3,3′,5,5′-tetramethylbenzidine (TMB), H2O2 solution (K-Blue Low Activity TMB Substrate, Neogen, Lexington, Ky.) was placed on each of the sensors in the array so as to cover all three electrodes of each sensor. Electrochemical measurements are immediately and simultaneously taken for all 16 sensors. For each array, negative control (NC) sensors were tested including the UNI capture probe, detector probe, and 2.5% bovine serum albumin (Sigma, St, Louis, Mo.) in 1 M phosphate buffer, pH 7.4, instead of bacterial lysate. The entire assay protocol was completed within 45 min from the time when bacterial lysis was commenced. Amperometric current vs. time was measured using a multichannel potentiostat (GeneFluidics). The voltage was fixed at −200 mV (vs. reference), and the electroreduction current was measured at 60 s after the HRP redox reaction reached steady state.
Clinical validity study design. Clinical urine specimens were received from routine urine cultures collected from inpatients and outpatients and submitted to the UCLA Clinical Microbiology Laboratory. Routine plating on tripticase soy agar with 5% sheep blood was performed on each specimen for phenotypic identification and colony counting while an aliquot of each specimen was held at 4° C. overnight. On the day after plating, specimens were selected for inclusion in the study on the basis of a rapid indole test for the purpose of including uropathogens other than Escherichia coli in approximately one-half of the specimens. The other half of the specimens were divided between E. coli-containing specimens and specimens determined to have ““no significant growth” or no growth” (see definitions below). Because most UTIs involve a single uropathogen, specimens determined by the clinical microbiology laboratory to have more than one organism present were excluded. Blinded specimens selected for inclusion in the study were stripped of patient identifiers and any microbiological data before delivery to the research laboratory for testing with the electrochemical sensor array.
Experiments were performed on all specimens using the 16-sensor array ‘UTI Chip’, in which the UNI, EB, EC, PM, KE, PA, and EF capture probes (defined in Tables 1 and 2) were tested in duplicate. The two remaining sensors served as negative controls (including capture and detector probes without bacterial lysate). […]

[3] = specimens with Enterobacter aerogenes
[4] = specimens with Enterobacter cloacae
[5] = specimens with Klebsiella pneumoniae
[6] = specimens with Escherichia coli
[7] = specimens with Pseudomonas aeruginosa
[8] = specimens with Serratia marcescens
[9] = specimens with Proteus mirabilis
[10] = No Significant Growth specimens
[11] = specimens with Enterococcus species
[12] = specimens with Citrobacter freundii
[13] = specimens with Citrobacter koseri
[14] = specimens with Enterobacteriaceae
[15] = specimens with Gram-negative bacteria

Molecule	Species detected [1]	Species not detected [1]	Mean (range) [2, 3]	Positive/Total = Percent [2, 3]	Mean (range) [2, 4]	Positive/Total = Percent [2, 4]	Mean (range) [2, 5]	Positive/Total = Percent [2, 5]	Mean (range) [2, 6]	Positive/Total = Percent [2, 6]	Positive/Total = Percent [2, 7]	Mean (range) [2, 8]	Positive/Total = Percent [2, 8]	Mean (range) [2, 9]	Positive/Total = Percent [2, 9]	Positive/Total = Percent [2, 10]	Positive/Total = Percent [2, 11]	other results
B1	Ea, El, Ko, Kp	Cf, Ec, Pa, Pm	0.86 (0.37-1.26) log10 units over background	KE 5/5 = 100%	0.34 log10 units over background	KE 1/1 = 100%	1.16 (0.76-1.50) log10 units over background	KE 7/8 = 88%	–	–	–	–	–	–	–	–	–	–
B2	Ec	Cf, Ea, El Eo, Ko, Kp,; also recorded: Pa, Pm	–	–	–	–	–	–	1.06 (0.48-1.59) log10 units over background	Ec 26/26 = 100%	–	–	–	–	–	–	–	–
B3	Pa	Ec, Ef, El, Eo, Kp, Pm	–	–	–	–	–	–	–	–	Pa 1/1 = 100%	Pa 0.36 log10 units over background	False Positive	–	–	–	–	Mean (range) [2, 7]: 0.55 log10 units over background
B4	Pm	Cf, Ea, Ec, El, Eo, Ko, Kp, Pa	–	–	–	–	–	–	–	–	–	–	–	0.74 (0.48-0.96) log10 units over background	Pm 3/3 = 100%	–	–	–
B5	Ef, Eo	Ec, Kp, Pa, Pm, Sa	–	–	–	–	–	–	–	–	–	–	–	–	–	Ef 1/8 = 13%	Ef 2/8 = 25%	Mean (range) [2, 10]: 0.31 log10 units over background; Mean (range) [2, 11]: 0.99 (0.63-1.36) log10 units over background
B6	Cf, Ea, Ec, El, Ko, Kp, Mm, Pm,	Ef, Eo, Pa, Sa, Ss	1.20 (0.82-1.52) log10 units over background	5/5 = 100%	1.08 log10 units over background	1/1 = 100%	1.13 (0.46-1.13) log10 units over background	8/8 = 100%	1.17 (0.46-1.60) log10 units over background	25/26 = 96%	0/1 = 0%	1.36 log10 units over background	1/1 = 100%	1.14 (0.92-1.45) log10 units over background	3/3 = 100%	0/8 = 0%	0/8 = 0%	sensitivity for detection of Gram-negative bacteria in clinical urine specimens [2]: 98%; Positive/Total = Percent ([2]; All specimens with bacteria): 46/47 = 98%^2; Positive/Total = Percent ([2]; No Growth specimens): 0/12 = 0%; Mean (range) [2, 12]: 1.32 (1.25-1.38) log10 units over background; Positive/Total = Percent [2, 12]: 2/2 = 100%; Mean (range) [2, 13]: 1.29 log10 units over background; Positive/Total = Percent [2, 13]: 1/1 = 100%; Mean (range) [2, 14]: 1.17 (0.46-1.60) log10 units over background; Positive/Total = Percent [2, 14]: 46/47 = 98%; Mean (range) [2, 15]: 1.17 (0.46-1.60) log10 units over background; Positive/Total = Percent [2, 15]: 46/47 = 98%^2; Positive/Total = Percent ([2]; specimens with Gram-positive bacteria): 0/10 = 0%; Positive/Total = Percent ([2]; specimens with Staph. saprophyticus): 0/2 = 0%
